# Experimental data: patent US20260248947A1, “Methods of Treating Cancer Using Anti-HER2 Antibody-Drug Conjugates and HER2 Kinase Inhibitors” (Seagen Inc., priority 2023, published 2026)
# Key:
# [1] = tested on: HER2-low breast cancer patient-derived xenograft (PDX) models CTG-1520 (IHC 0), CTG-0012 (IHC 1+), CTG-0670 (IHC 2+); experiment: Tumor volume in HER2-low breast cancer PDX models; assay type: in vivo, Mice; conditions: single intravenous dose 0.3, 1, 2 or 5 mg/kg; in a subset of the models
# Description: First, the anti-tumor effect of DV as a monotherapy was tested in three PDX models with varying HER2 expression levels. Three breast cancer PDX models were used: CTG-1520 (IHC 0), CTG-0012 (IHC 1+), and CTG-0670 (IHC 2+). Mice (n=10/group) were treated with the indicated concentrations of DV (intravenous, single dose), and tumor volume was measured over time. […] Dashed lines represent carry-over of tumor volumes from individual animals that were removed from study when their tumors reached maximum allowable size (less than 3/10 animals per group).
# Next, DV and tucatinib were tested as monotherapies and in combination in the three PDX models. Mice (n=10/group) were treated with the indicated concentrations of tucatinib (50 mg/kg oral, twice daily), DV (1 or 2 mg/kg, intravenous, single dose), or a combination of tucatinib and DV, and tumor volume was measured over time. […] Dotted lines represent carry-over of tumor volumes from individual animals that were removed from study when their tumors reached maximum allowable size (less than 3/10 animals per group).
# [2] = tested on: PDO SG-553-819-8499 (HER2 moderate); experiment: Patient-derived organoid cytotoxicity, caspase-3/7 fluorescence imaging; assay type: cell-based; conditions: DV 27-6,700 ng/mL, T-DXd 41-10,000 ng/mL
# Description: (§1) DV and T-DXd were also tested against a panel of PDOs: HER2 low SG-111-444-6273, HER2 low SG-634-395-2953, and HER2 moderate SG-553-819-8499. DV was titrated across a range of 27-6,700 ng/mL, while T-DXd was titrated across a range of 41-10,000 ng/mL. Drug and media was exchanged every four days. Analysis was conducted with fluorescence imaging: PDOs were identified from clusters of Hoechst positive cells, and caspase-3/7 was used for the identification of apoptotic cells. Mean caspase-3/7 intensity was measured per well and normalized to cell count.
# [3] = tested on: PDO SG-634-395-2953 (HER2 low); experiment: as above; assay type: cell-based; conditions: DV 27-6,700 ng/mL, T-DXd 41-10,000 ng/mL
# Description: as §1
# [4] = tested on: PDO SG-111-444-6273 (HER2 low); experiment: as above; assay type: cell-based; conditions: DV 27-6,700 ng/mL, T-DXd 41-10,000 ng/mL
# Description: as §1
# HCC-1954 = experiment: 144-hour CellTiter-Glo cytotoxicity assay, DV and T-DXd; assay type: cell-based; conditions: HCC-1954, 1,259,000 HER2 receptors/cell, 1-10,000 ng/mL
# Description: (§2) DV and T-DXd were evaluated against breast cancer cell lines spanning a range of HER2 expression levels (calculated by quantitative flow cytometry): HCC-1954 with 1,259,000 HER2 receptors/cell, MDA-MB-361 with 60,000 HER2 receptors/cell, and HCC-38 with 20,000 HER2 receptors/cell. Drugs were titrated (1-10,000 ng/mL), and viability was tested in a 144-hour CellTiter-Glo cytotoxicity assay.
# MDA-MB-361 = experiment: as above; assay type: cell-based; conditions: MDA-MB-361, 60,000 HER2 receptors/cell, 1-10,000 ng/mL
# Description: as §2
# HCC-38 = experiment: as above; assay type: cell-based; conditions: HCC-38, 20,000 HER2 receptors/cell, 1-10,000 ng/mL
# Description: as §2
# HER2 = HER2 (Homo sapiens, UniProt P04626); experiment: Internalization of anti-HER2 ADCs DV, T-DM1 and T-DXd; assay type: cell-based; set-up: endogenous in cells; host or cells: SK-BR-3, BT-474, HCC-202, EFM-192C, BT-483, CAMA-1, NCI-N87, OE19, RERF-GC-1B; conditions: results considered preliminary
# Description: The internalization experiments were conducted by detecting an antibody-bound pH sensitive probe using automated time-lapse microscopy. Briefly, breast cancer cell lines SK-BR-3, BT-474, HCC-202, EFM-192C, BT-483, and CAMA-1 and gastric cancer cell lines NCI-N87, OE19, and RERF-GC-1B were seeded in 96-well flat clear-bottom black tissue culture-treated microplates (Corning, cat #3603). Cells were plated at 1.5×10^4-2.5×10^4 cells/200 μL/well in growth medium and allowed to adhere overnight at 37° C. Disitamab, trastuzumab, and isotype control antibody (human IgG) were labeled with IncuCyte Fabfluor-pH Red Antibody Labeling Reagent (Essen Bioscience, cat #4722) according to the manufacturer's protocol. Volumes of the test antibodies, Fabfluor reagent and medium required were calculated at 2× the final assay concentration, and the Fabfluor reagent was added at a molar ratio of 1:3 to the antibody. Fabfluor dye fluoresces only upon exposure to an acidified compartment, namely endocytic vesicles and lysosomes, signifying internalization and intracellular processing of the ADC. Antibody and Fabfluor were mixed gently and incubated at 37° C. for 15 minutes. Media containing Fabfluor-labeled disitamab or trastuzumab ([…] final concentration) was added to cells. The plates were arranged on microplate trays in the IncuCyte SX3 system (Essen Bioscience), and scans were acquired using the Standard protocol. Phase data and red channel data (acquisition time set to 400 ms) were collected, with 4 images per well every 30 minutes for the first 6 hours and every 2 hours after that for up to 40 hours with the objective set at 10×. Quantification of fluorescence signal intensity was performed using the IncuCyte software analysis tool.
# Internalization of anti-HER2 ADCs DV, T-DM1, and T-DXd (two HER2-targeting ADCs with trastuzumab as a backbone) was also tested in breast cancer cell lines SK-BR-3, HCC-202, and BT-483.
substance,measurement,setting,value
disitamab vedotin [DV],anti-tumor effects (tumor volume) of DV monotherapy,[1],anti-tumor effects in a dose-dependent manner
same,single-agent cytotoxic activity as compared to T-DXd (caspase-3/7 intensity),[2],more potent single-agent cytotoxic activity
same,single-agent cytotoxic activity as compared to T-DXd (caspase-3/7 intensity),[3],more potent single-agent cytotoxic activity
same,single-agent cytotoxic activity as compared to T-DXd (caspase-3/7 intensity),[4],more potent single-agent cytotoxic activity
same,single-agent cytotoxic activity as compared to T-DXd,HCC-1954,more potent single-agent cytotoxic activity
same,single-agent cytotoxic activity as compared to T-DXd,MDA-MB-361,more potent single-agent cytotoxic activity
same,single-agent cytotoxic activity as compared to T-DXd,HCC-38,more potent single-agent cytotoxic activity
same,internalization compared to T-DM1 and T-DXd,HER2; BT-483,enhanced internalization
same,internalization compared to T-DM1 and T-DXd,HER2; HCC-202,enhanced internalization
same,internalization compared to T-DM1 and T-DXd,HER2; SK-BR-3,enhanced internalization
